Here are results for two substances from PMC11358414.

In the assay the target is DEP-Venus (DEP domain of Disheveled, DVL) (UniProt O14641). The experiment in a line: NanoBiT-based DEP recruitment BRET assay (BRET titration). The following applies: HEK293A cells, FLAG-LgBiT-CAAX cotransfected, baseline-corrected …, parent: est. 0.38, read off a plot. (In general: In BRET a luciferase serves as donor, and the signal depends on an acceptor being close.)

With “FZD7-SmBiT, wild type (from UniProt O75084) F345A; H382A”, the response (value read at the right end of the fitted curve (Venus fluorescence about 27000 arb. units)) was 0.08 net BRET.
“FZD7-SmBiT, wild type (from UniProt O75084) F345A; W386A”: under “value read at the right end of the fitted curve (Venus fluorescence about 23000 arb. units)”, the response was 0.1 net BRET.
